US20050079613A1, “Downregulation of cell surface glycoproteins by a family of human ubiquitin ligases” (Oregon Health & Science University, priority 2002, published 2005)

System: Fas (CD95), MHC I, HLA-A2.1, CD4, transferrin receptor, B7.1
Assay: Surface glycoprotein panel on transfected HeLa cells, flow cytometry
Assay type: cell-based, human
Details: HeLa cells transfected with MARCH plasmid
Method: Flow cytometry. Cells were removed from tissue culture dishes with 0.05% Trypsin-EDTA (Invitrogen), washed with ice-cold PBS, and incubated with appropriate antibody for 30 minutes at 4° C. The cells were washed with ice-cold PBS and either resuspended in ice-cold PBS or incubated with PE-conjugated anti-mouse secondary antibody (DAKO) and washed again before analysis with a BD Biosciences (San Jose, Calif.) FACScalibur flow cytometer.
The ability to downregulate MHC I is common to KSHV-K3, KSHV-K5, MHV68-K3 and MV-M153R (Coscoy and Ganem, 2000, supra; Guerin et al., 2002, supra; Ishido et al., 2000b supra; Stevenson et al., 2000, supra). Additional substrates are ICAM-1 and B7.2 (but not B7.1) for KSHV-K5, as well as CD95 and CD4 for M153R (Coscoy and Ganem, 2001, supra; Guerin et al., 2002, supra; Ishido et al., 2000a, supra; Mansouri et al., 2003, supra). Since only low copy numbers were detected in HeLa cells for transcripts corresponding to each of the MARCH-proteins (FIG. 7C, and data not shown), HeLa cells were transfected with expression plasmids for MARCH-I, II, III, IV, V and VIII. Surface expression of selected glycoproteins was monitored upon transfection. […] Surface expression of the respective markers was analyzed by flow cytometry. […]

B1: MARCH-V: four-transmembrane human RING-CH protein, SEQ ID NOS:47 and 58 (protein, listed as Homo sapiens)
chain: MPDQALQQMLDRSCWVCFATDEDDRTAEWVRPCRCRGSTKWVHQACLQRWVDEKQRGNSTARVACPQCNAEYLIVFPKLGPVVYVLDLADRLISKACPFAAAGIMVGSIYWTAVTYGAVTVMQVVGHKEGLDVMERADPLFLLIGLPTIPVMLILGKMIRWEDYVLRLWRKYSNKLQILNSIFPGIGCPVPRIPAEANPLADHVSATRILCGALVFPTIATIVGKLMFSSVNSNLQRTILGGIAFVAIKGAFKVYFKQQQYLRQAHRKILNYPEQEEA
For B1, the “reduction in surface levels of any of the glycoproteins of the panel” value was “No reduction in surface levels”.
